Like-named read-outs stand apart in the source and are kept apart here.
Assays:
[1] = target: BSA (bovine) (UniProt P02769); test: ELISA, BSA coated as negative control, binder 1 µg/mL, chemiluminescence
[2] = target: BSA (bovine) (UniProt P02769); test: as above; remark: listed apart in the source

BSA (bovine), sequence (P02769 25-607 limits assumed): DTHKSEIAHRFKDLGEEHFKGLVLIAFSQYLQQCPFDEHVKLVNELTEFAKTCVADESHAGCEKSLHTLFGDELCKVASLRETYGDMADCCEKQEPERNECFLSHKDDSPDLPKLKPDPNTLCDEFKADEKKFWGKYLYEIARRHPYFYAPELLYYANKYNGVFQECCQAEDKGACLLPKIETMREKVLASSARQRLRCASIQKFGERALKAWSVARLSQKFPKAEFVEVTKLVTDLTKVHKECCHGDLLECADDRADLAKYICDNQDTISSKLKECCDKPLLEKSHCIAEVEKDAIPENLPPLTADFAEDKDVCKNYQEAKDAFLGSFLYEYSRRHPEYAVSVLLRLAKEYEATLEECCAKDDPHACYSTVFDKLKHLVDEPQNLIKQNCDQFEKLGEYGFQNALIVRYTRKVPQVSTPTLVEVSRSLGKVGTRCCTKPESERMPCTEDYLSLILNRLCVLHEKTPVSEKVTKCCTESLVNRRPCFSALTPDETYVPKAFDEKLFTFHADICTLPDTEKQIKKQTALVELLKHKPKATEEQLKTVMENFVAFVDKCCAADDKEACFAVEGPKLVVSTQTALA
CR3022 (antibody), sequence (VH): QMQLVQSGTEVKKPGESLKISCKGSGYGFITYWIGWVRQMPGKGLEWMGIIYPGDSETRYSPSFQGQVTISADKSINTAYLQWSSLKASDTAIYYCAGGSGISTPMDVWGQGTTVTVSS
CR3022 (antibody), sequence (VL): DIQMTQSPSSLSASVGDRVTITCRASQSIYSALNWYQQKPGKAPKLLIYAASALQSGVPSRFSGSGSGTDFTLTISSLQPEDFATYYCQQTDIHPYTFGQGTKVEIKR
BD23 (antibody), sequence (VH): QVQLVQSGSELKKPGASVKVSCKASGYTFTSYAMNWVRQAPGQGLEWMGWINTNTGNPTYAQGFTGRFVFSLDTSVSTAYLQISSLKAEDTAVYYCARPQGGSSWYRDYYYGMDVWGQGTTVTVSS
BD23 (antibody), sequence (VL): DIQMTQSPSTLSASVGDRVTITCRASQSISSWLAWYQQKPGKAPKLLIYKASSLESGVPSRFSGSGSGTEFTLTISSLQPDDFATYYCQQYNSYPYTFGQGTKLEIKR

Substance: BD23 (antibody)
- signal intensity [1]: 83
- signal intensity [2]: 13

Substance: CR3022 (antibody)
- signal intensity [1]: 53
- signal intensity [2]: 63

Substance: CV30 (antibody)
- signal intensity [1]: 33
- signal intensity [2]: 73

Substance: REGN10933 (antibody)
- signal intensity [1]: 63
- signal intensity [2]: 53

Substance: REGN10987 (antibody)
- signal intensity [1]: 63
- signal intensity [2]: 43

Reference: US20240255507A1
